PMC3202535, “A Novel Metagenomic Short-Chain Dehydrogenase/Reductase Attenuates Pseudomonas aeruginosa Biofilm Formation and Virulence on Caenorhabditis elegans” (PLoS ONE, 2011)

Assays:
BpiB09 [1] = biological target: T1, BpiB09 (uncultured bacterium Bio5, UniProt B2BKB1); experiment: HPLC-MS of reduction to 3-hydroxy-C12-HSL; assay type: biochemical; details: 1 mM NADPH, 100 mM potassium phosphate pH 7.0, 20% DMSO, 30 C, 16 h; 4 mM substrate (5 mM in Results)
T1 construct: about 720 bp gene; His-tag purified from E. coli BL21 DE3 (pET-19b; also cloned in pET-21a); homotetramer

BpiB09 [2] = biological target: T1, BpiB09; experiment: X-ray crystal structure, […] A; assay type: binding; details: 1 mM NADP+ added before crystallisation; 0.1 M citric acid pH 4.5, 1.5 M LiSO4; 292 K; nucleotide site; modelled as partial NADP+, nicotinamide half poorly defined
[3] = biological target: BpiB09 (soil metagenome (not yet cultivated microbe)); experiment: AUC; analytical ultracentrifugation of recombinant BpiB09 and its mutants; conditions not given
[4] = biological target: BpiB09 (soil metagenome (not yet cultivated microbe)); experiment: crystal structure; BpiB09 with NADP+; crystals from 0.1 M citric acid pH 4.5 and 1.5 M LiSO4 at 292 K; space group I422, four copies per asymmetric unit, tetramer completed by a crystallographic dyad; 2.4 Å
[5] = biological target: BpiB09 (soil metagenome (not yet cultivated microbe)); experiment: SEC; gel permeation chromatography during purification (data not shown)

T1 sequence (B2BKB1 entry or part of it): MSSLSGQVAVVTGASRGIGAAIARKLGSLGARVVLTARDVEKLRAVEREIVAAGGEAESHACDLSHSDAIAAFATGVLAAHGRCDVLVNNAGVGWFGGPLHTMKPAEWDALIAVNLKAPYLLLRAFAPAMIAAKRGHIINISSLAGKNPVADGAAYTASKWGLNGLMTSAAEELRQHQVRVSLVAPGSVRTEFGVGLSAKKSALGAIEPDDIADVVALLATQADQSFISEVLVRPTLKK

Molecule: CCCCCCCCCC(=O)CC(=O)N[C@H]1CCOC1=O [3-oxo-C12-HSL, N-(3-oxo-dodecanoyl)-L-homoserine lactone]
- HPLC-MS of reduction to 3-hydroxy-C12-HSL (BpiB09 [1]): analyses of purified enzyme resulted in a turnover of 3-oxo-C12-HSL to 3-hydroxy-C12-HSL

Molecule: NC(=O)c1ccc[n+]([C@@H]2O[C@H](COP(=O)(O)OP(=O)(O)OC[C@H]3O[C@@H](n4cnc5c(N)ncnc54)[C@H](OP(=O)(O)O)[C@@H]3O)[C@@H](O)[C@H]2O)c1 [NADP+]
- X-ray crystal structure, 2.4 A (BpiB09 [2]): adding NADP+ prior to crystallization resulted in a higher occupancy of the bound NADP+

Molecule: BpiB09 (enzyme)
- stoichiometry N [3]: 4
- stoichiometry N [4]: 4
- stoichiometry N [5]: 4
